Measurements taken from patent US20240076386A1 (Pfizer, published 2024).

What was measured:
[1] = target: T1, recombinant histidine-tagged human E-selectin (Sino Biologicals; 13025-H08H) (human, UniProt P16581 22-556); experiment: neutralization of sialyl Lewis A ligand binding, soluble recombinant protein, competition ELISA
T1 construct: also called recombinant human E-selectin; soluble recombinant human E-selectin
T1 sequence (looked up): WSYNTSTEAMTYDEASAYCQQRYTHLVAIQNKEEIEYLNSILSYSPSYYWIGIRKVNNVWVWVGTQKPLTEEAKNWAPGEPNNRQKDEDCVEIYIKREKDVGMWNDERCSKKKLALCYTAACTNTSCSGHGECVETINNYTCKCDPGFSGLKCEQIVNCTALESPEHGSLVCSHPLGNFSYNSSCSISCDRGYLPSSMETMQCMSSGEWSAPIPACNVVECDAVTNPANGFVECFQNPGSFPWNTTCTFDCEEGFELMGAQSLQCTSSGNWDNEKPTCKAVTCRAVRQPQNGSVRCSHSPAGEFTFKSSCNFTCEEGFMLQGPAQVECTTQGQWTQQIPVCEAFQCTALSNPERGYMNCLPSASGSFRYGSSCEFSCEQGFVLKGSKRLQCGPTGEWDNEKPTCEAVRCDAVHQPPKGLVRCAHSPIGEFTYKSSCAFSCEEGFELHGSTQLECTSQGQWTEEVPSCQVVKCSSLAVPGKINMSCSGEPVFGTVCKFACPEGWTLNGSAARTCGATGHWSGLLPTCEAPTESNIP
Procedure: (§1) Recombinant histidine-tagged E-selectin; cynomolgus monkey E-selectin (Sino Biologicals; 190169-C08H) and human E-selectin (Sino Biologicals; 13025-H08H) stock solutions were prepared to a final concentration of 3 μg/mL in phosphate buffered saline (PBS) without calcium and magnesium. One hundred μL per well of the diluted recombinant E-selectin protein was added into a Ni-NTA HisSorb 96 well plate (Qiagen, 35061) and plates were incubated on an orbital shaker at room temperature for 2 hours. Sialyl Lewis A polyacrylamide biotin, a synthetic E-selectin ligand (GlycoTech corporation 01-044), was conjugated to streptavidin HRP (horse radish peroxidase) (Ultra Streptavidin HRP, Thermo Scientific N504) and diluted in assay diluent containing 2 mM calcium chloride (BD OptEIA buffer; BD Biosciences, 555213).

[2] = target: T2, recombinant histidine-tagged cynomolgus monkey E-selectin (Sino Biologicals; 190169-C08H) (cynomolgus monkey, UniProt A0A2K5U7H9 22-554); experiment: as above
T2 construct: also called recombinant cynomolgus monkey E-selectin
T2 sequence: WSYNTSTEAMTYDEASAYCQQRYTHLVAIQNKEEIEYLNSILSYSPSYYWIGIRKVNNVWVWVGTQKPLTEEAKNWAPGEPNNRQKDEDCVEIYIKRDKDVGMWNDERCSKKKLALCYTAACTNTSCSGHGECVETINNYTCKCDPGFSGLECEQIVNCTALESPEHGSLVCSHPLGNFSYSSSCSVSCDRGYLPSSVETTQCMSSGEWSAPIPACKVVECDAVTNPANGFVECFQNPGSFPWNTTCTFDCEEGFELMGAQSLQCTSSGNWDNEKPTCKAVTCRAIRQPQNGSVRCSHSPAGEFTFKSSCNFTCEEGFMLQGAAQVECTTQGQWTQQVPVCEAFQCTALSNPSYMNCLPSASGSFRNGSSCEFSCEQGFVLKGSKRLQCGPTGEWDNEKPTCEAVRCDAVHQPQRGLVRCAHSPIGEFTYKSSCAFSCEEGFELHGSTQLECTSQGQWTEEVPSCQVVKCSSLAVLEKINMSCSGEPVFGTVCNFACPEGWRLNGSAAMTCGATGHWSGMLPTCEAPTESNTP
Procedure: as §1

- IC50 [1]: 2.87 to 3.01 nM
- IC50 [2]: 2.39 to 2.91 nM
B1: optimized anti-E-selectin antibody 1444 (antibody, human IgG1, kappa, V domains shown)
VH: EVQLVESGGGLVQPGGSLRLSCAASGYAIRSAYMHWVRQAPGKGLEWVARIDPANGNTIYVDSVTGRFTISADNAKNSAYLQMNSLRAEDTAVYYCAMDLYSTSEYWGQGTLVTVSS
VL: DIQMTQSPSSLSASVGDRVTITCKTSQNIERYLNWYQQKPGKAPKLLIYAASSLQSGVPSRFSGSGSGTDFTLTISSLQPEDFATYFCLQDNAWPLTFGQGTKVEIKR
notes: effector-null human IgG1, kappa
